Measured values from the supplement of paper PMC10065799, “High-throughput profiling of sequence recognition by tyrosine kinases and SH2 domains using bacterial peptide display” (eLife, 2023).

How the values were obtained:
AncSZ = test: phosphorylation enrichment, bacterial display (enrichment ratio); higher = better substrate or ligand; peptides without Tyr show the background
EPHB1 = EPHB1 (UniProt P54762); test: as above
EPHB2 = EPHB2 (UniProt P29323); test: as above
FGFR1 = FGFR1 (UniProt P11362); test: as above
FGFR3 = FGFR3 (UniProt P22607); test: as above
Fer (mouse) = test: as above
Fes = Fes (UniProt P07332); test: as above
Fyn = Fyn (UniProt P06241); test: as above
Hck = Hck (UniProt P08631); test: as above
Jak2 = Jak2 (UniProt O60674); test: as above
MERTK = MERTK (UniProt Q12866); test: as above
c-Abl (mouse) = test: as above
c-Src = test: as above
Grb2 SH2 = Grb2 SH2 (UniProt P62993); test: SH2 binding enrichment of the phosphorylated peptide, bacterial display (enrichment ratio); higher = better substrate or ligand; peptides without Tyr show the background
SHP2-C SH2 = test: as above
c-Src SH2 = test: as above
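Wherever SH2 binding enrichment of the phosphorylated peptide, bacterial display is given: peptide library displayed on the E. coli surface as eCPX fusions, selected cells deep-sequenced, score is each peptide's frequency after selection divided by its frequency in the input.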
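Wherever phosphorylation enrichment, bacterial display is given: 11-residue human phosphosite peptides and single-mutation variants displayed on the E. coli surface, counted by deep sequencing, each peptide's frequency after selection divided by its frequency in the unselected input library; frequency after pTyr selection over input frequency; kinase dosed for 20-30% of maximal phosphorylation in three min.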

Chain of EPHB1 (P54762 whole entry, looked up): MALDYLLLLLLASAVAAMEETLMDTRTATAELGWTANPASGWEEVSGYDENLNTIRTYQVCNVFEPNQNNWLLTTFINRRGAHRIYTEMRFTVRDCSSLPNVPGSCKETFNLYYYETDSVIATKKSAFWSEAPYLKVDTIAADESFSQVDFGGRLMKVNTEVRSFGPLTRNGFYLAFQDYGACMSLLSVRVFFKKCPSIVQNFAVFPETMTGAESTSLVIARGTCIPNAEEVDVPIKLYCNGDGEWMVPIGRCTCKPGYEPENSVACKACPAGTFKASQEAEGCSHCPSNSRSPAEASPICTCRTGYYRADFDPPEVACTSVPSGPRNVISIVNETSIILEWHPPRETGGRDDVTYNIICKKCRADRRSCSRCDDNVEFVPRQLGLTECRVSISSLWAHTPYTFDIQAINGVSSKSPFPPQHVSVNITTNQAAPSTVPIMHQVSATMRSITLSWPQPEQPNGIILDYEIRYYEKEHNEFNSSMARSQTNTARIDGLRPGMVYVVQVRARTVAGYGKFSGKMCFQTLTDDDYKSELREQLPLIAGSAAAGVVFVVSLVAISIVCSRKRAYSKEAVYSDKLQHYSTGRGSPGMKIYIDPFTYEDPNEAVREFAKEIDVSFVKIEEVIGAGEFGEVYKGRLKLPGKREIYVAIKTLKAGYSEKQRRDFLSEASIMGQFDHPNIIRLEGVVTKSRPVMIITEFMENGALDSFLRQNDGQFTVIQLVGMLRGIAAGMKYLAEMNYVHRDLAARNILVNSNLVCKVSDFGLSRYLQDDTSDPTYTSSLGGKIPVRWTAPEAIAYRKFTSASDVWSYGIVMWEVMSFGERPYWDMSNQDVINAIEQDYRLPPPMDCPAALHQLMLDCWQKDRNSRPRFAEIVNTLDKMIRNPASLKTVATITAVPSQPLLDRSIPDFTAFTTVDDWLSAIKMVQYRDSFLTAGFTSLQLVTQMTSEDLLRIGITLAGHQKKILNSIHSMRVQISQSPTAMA
Chain of Jak2 (O60674 whole entry, looked up): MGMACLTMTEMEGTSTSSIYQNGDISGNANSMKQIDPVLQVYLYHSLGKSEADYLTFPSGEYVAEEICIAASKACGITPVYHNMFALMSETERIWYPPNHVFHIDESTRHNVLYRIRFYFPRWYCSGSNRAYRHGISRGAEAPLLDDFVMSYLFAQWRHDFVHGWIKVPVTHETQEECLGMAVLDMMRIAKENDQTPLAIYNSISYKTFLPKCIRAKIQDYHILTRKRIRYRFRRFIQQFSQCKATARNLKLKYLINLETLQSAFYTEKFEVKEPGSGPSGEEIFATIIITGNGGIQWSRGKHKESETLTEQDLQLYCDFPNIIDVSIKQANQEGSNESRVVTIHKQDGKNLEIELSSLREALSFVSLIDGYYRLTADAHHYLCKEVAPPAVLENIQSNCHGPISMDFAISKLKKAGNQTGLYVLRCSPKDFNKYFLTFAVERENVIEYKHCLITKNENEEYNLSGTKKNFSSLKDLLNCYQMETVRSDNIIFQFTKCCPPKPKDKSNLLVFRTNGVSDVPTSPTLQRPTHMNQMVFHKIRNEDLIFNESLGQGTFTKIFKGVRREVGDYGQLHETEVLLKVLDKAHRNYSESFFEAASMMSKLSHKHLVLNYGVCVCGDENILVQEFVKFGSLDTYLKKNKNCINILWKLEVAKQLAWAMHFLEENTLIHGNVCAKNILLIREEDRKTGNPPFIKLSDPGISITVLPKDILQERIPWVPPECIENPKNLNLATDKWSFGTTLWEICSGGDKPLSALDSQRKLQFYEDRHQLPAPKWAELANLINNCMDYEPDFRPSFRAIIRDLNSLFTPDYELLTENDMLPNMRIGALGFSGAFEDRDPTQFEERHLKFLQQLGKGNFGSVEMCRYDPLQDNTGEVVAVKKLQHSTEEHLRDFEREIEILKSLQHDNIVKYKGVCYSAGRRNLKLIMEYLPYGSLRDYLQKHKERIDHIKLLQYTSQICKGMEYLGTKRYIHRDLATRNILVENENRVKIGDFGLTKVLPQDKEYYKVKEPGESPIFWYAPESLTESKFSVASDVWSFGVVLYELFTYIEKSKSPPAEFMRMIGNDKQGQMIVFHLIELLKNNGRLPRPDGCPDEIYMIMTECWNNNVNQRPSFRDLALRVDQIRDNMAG
Chain of EPHB2 (P29323 whole entry, looked up): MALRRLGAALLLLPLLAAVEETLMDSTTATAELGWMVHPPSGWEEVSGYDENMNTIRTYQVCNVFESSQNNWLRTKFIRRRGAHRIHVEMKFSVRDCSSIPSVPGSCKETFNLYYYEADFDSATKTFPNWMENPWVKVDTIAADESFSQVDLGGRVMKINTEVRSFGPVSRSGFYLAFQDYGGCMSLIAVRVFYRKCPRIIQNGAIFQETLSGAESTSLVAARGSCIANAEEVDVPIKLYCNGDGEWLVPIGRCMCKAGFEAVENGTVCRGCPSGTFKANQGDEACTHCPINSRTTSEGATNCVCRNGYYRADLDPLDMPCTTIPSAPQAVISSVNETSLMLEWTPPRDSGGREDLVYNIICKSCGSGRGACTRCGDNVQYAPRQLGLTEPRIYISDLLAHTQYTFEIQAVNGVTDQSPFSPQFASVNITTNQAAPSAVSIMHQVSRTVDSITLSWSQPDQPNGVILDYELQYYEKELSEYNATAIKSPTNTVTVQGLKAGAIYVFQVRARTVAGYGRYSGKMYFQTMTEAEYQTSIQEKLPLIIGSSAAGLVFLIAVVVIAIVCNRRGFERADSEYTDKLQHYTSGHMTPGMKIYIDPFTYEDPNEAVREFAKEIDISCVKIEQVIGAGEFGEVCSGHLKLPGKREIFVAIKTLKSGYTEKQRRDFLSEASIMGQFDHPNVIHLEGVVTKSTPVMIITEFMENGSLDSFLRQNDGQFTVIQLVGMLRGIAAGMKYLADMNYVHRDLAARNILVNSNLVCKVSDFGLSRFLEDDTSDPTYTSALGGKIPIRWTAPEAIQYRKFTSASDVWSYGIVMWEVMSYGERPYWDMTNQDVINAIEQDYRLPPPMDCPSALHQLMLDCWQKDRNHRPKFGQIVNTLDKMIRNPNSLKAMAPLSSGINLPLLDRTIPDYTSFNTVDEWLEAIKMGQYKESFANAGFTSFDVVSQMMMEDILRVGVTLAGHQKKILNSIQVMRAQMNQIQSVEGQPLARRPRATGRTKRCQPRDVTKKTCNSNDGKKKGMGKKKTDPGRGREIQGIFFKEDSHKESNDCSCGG
Chain of MERTK (Q12866 whole entry, looked up): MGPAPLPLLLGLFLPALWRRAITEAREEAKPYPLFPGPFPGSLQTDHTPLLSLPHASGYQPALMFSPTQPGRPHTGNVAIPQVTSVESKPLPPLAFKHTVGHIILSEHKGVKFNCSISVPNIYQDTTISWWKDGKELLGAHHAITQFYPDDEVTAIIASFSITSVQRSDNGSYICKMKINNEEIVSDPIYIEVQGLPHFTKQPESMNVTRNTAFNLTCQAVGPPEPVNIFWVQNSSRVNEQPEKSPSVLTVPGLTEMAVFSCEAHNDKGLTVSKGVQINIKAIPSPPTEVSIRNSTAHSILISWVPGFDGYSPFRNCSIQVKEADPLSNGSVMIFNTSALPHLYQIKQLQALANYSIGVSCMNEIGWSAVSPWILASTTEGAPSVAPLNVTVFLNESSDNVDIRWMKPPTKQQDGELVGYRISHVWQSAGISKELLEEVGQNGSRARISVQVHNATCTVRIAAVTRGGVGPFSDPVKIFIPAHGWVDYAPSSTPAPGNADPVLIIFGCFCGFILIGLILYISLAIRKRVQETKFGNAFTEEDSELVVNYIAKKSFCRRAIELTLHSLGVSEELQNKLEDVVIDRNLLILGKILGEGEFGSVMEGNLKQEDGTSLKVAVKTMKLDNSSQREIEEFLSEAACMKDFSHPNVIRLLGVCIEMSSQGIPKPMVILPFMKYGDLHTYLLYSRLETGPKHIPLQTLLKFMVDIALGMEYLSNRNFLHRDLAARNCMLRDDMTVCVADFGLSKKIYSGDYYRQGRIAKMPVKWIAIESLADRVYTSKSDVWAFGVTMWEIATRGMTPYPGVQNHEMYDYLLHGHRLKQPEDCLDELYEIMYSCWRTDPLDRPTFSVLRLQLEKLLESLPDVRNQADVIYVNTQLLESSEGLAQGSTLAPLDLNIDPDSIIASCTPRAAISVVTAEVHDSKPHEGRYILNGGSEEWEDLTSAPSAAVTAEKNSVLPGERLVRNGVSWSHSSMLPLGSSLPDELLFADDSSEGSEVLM
Chain of Hck (P08631 whole entry, looked up): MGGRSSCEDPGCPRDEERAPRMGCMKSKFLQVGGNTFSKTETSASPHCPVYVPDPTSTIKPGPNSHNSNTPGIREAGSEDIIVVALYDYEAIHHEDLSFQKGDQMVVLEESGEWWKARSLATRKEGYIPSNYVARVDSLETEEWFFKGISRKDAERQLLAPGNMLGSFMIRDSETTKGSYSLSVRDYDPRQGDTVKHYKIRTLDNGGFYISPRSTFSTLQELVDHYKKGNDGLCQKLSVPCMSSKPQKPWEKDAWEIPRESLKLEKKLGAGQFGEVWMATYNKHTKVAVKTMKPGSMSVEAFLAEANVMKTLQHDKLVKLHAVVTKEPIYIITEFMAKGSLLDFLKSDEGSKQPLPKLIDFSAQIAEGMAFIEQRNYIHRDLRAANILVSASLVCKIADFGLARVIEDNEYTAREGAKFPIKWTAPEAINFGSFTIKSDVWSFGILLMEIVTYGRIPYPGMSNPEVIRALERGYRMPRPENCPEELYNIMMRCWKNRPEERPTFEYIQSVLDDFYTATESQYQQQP

Row | SH2 binding enrichment (Grb2 SH2) | SH2 binding enrichment (SHP2-C SH2) | SH2 binding enrichment (c-Src SH2) | Sequence | phosphorylation enrichment (AncSZ) | phosphorylation enrichment (EPHB1) | phosphorylation enrichment (EPHB2) | phosphorylation enrichment (FGFR1) | phosphorylation enrichment (FGFR3) | phosphorylation enrichment (Fer (mouse)) | phosphorylation enrichment (Fes) | phosphorylation enrichment (Fyn) | phosphorylation enrichment (Hck) | phosphorylation enrichment (Jak2) | phosphorylation enrichment (MERTK) | phosphorylation enrichment (c-Abl (mouse)) | phosphorylation enrichment (c-Src)
1 | 1.01 | 0.849 | 0.884 | DTQNSYWCATS [TSC1_Y304_G305W] | 0.952 | 0.535 | 0.456 | 1.07 | 0.832 | 0.405 | 0.916 | 0.485 | 0.518 | 0.805 | 1.36 | 0.633 | 0.52
2 | 0.712 | 0.885 | 0.692 | YTHSDYQYGQR [PKP2_Y166_S169G] | 0.867 | 0.436 | 0.416 | 0.531 | 0.606 | 0.572 | 0.496 | 0.476 | 0.703 | 0.317 | 0.424 | 0.492 | 0.439
3 | 0.618 | 0.701 | 0.491 | GDFFCYLAEVA [YWHAG_Y133_R132C_YF] | 1.33 | 0.863 | 0.655 | 0.557 | 0.922 | 0.865 | 1.52 | 0.702 | 0.608 | 1.39 | 0.546 | 1.12 | 0.484
4 | 1.53 | 1.45 | 1.08 | HSKGIYFVQLE [MGAT4B_Y262_Q257H_YF] | 1.87 | 0.853 | 0.911 | 1.38 | 1.75 | 0.711 | 2.53 | 1.03 | 1.12 | 2.27 | 3.31 | 1.31 | 1.65
5 | 1.01 | 1.33 | 1.07 | RSPLRYISILT [OR51B6_Y130_T131I] | 0.724 | 0.446 | 0.473 | 0.676 | 0.763 | 0.606 | 0.8 | 0.409 | 0.515 | 0.475 | 0.376 | 0.419 | 0.322
6 | 0.681 | 0.538 | 0.851 | ESMQSYDLDYP [UNC13B_Y243_D238E] | 1.16 | 0.651 | 0.534 | 0.698 | 0.686 | 0.495 | 1.26 | 0.536 | 0.615 | 0.991 | 0.466 | 0.933 | 0.544
7 | 1.12 | 0.718 | 0.584 | VKPENDRRLDI [VHL_Y175_Y175D] | 0.675 | 0.44 | 0.438 | 0.37 | 0.539 | 0.43 | 0.789 | 0.43 | 0.43 | 0.692 | 0.531 | 0.535 | 0.356
8 | 1.07 | 0.644 | 0.568 | NKEPRYQEEPP [TJP2_Y479_D482E] | 1.1 | 0.499 | 0.67 | 0.444 | 0.685 | 0.43 | 1.18 | 0.507 | 0.508 | 0.915 | 0.501 | 0.907 | 0.421

The remaining lines, values behind:

Row | Sequence | SH2 binding enrichment (Grb2 SH2) | SH2 binding enrichment (SHP2-C SH2) | SH2 binding enrichment (c-Src SH2) | phosphorylation enrichment (AncSZ) | phosphorylation enrichment (EPHB1) | phosphorylation enrichment (EPHB2) | phosphorylation enrichment (FGFR1) | phosphorylation enrichment (FGFR3) | phosphorylation enrichment (Fer (mouse)) | phosphorylation enrichment (Fes) | phosphorylation enrichment (Fyn) | phosphorylation enrichment (Hck) | phosphorylation enrichment (Jak2) | phosphorylation enrichment (MERTK) | phosphorylation enrichment (c-Abl (mouse)) | phosphorylation enrichment (c-Src)
9 | LTDLRYKVSGP | 1.04 | 0.82 | 0.407 | 0.644 | 0.518 | 0.957 | 0.43 | 1.13 | 0.588 | 1.11 | 0.537 | 0.594 | 0.687 | 0.464 | 0.684 | 0.255
10 | VVGMLYVGGLP [LAMA2_Y2886] | 0.78 | 0.785 | 0.461 | 0.999 | 0.727 | 0.644 | 0.491 | 0.683 | 0.486 | 1.2 | 0.455 | 0.454 | 1.08 | 0.449 | 0.742 | 0.388
11 | NCFKYYMSDDI [ATRX_Y204] | 0.97 | 0.799 | 1.52 | 1.33 | 0.748 | 0.625 | 0.959 | 0.931 | 0.496 | 1.51 | 0.491 | 0.548 | 1.32 | 0.562 | 1.17 | 0.811
12 | SFPPTYRFERG [INPPL1_Y661_YF] | 0.868 | 0.767 | 0.442 | 0.638 | 0.405 | 0.626 | 0.393 | 0.476 | 0.362 | 0.603 | 0.412 | 0.369 | 0.51 | 0.418 | 0.556 | 0.592
13 | AAPAAHDAADT [GAMT_Y27_Y27H] | 1 | 0.8 | 0.478 | 0.618 | 0.387 | 0.602 | 0.403 | 0.452 | 0.418 | 0.665 | 0.45 | 0.749 | 0.531 | 0.45 | 0.48 | 0.32
14 | EVDETYVPKEF [ALB_Y521] | 0.881 | 0.651 | 0.498 | 1.22 | 0.613 | 0.64 | 0.589 | 0.791 | 0.605 | 1.58 | 0.517 | 0.668 | 1.19 | 0.491 | 0.889 | 0.595
15 | QQIFTYDSGIH [JUP_Y22_T19I_YF] | 0.936 | 0.793 | 0.653 | 1.46 | 0.967 | 0.991 | 0.784 | 1.09 | 0.653 | 1.32 | 0.897 | 0.833 | 1.2 | 0.901 | 1.14 | 0.939
